Measurements taken from publication PMC7076219 (2020).
Changes are numbered by the printed parent chain. Names may count otherwise. “And” between values parts separate entries of the source, which are not always exact repeats. Equal values may be shown once.

B1: E-S0 (mouse E-selectin lectin and EGF domains, no SCR domains) (domain or fragment)
chain: WYYNASSELMTYDEASAYCQRDYTHLVAIQNKEEINYLNSNLKHSPSYYWIGIRKVNNVWIWVGTGKPLTEEAQNWAPGEPNNKQRNEDCVEIYIQRTKDSGMWNDERCNKKKLALCYTASCTNASCSGHGECIETINSYTCKCHPGFLGPNCEQ
B2: E-S6 (monomeric full-length extracellular mouse E-selectin) (domain or fragment)
chain: WYYNASSELMTYDEASAYCQRDYTHLVAIQNKEEINYLNSNLKHSPSYYWIGIRKVNNVWIWVGTGKPLTEEAQNWAPGEPNNKQRNEDCVEIYIQRTKDSGMWNDERCNKKKLALCYTASCTNASCSGHGECIETINSYTCKCHPGFLGPNCEQAVTCKPQEHPDYGSLNCSHPFGPFSYNSSCSFGCKRGYLPSSMETTVRCTSSGEWSAPAPACHVVECEALTHPAHGIRKCSSNPGSYPWNTTCTFDCVEGYRRVGAQNLQCTSSGIWDNETPSCKAVTCDAIPQPQNGFVSCSHSTAGELAFKSSCNFTCEQSFTLQGPAQVECSAQGQWTPQIPVCKAVQCEALSAPQQGNMKCLPSASGPFQNGSSCEFSCEEGFELKGSRRLQCGPRGEWDSKKPTCSAVKCDDVPRPQNGVMECAHATTGEFTYKSSCAFQCNEGFSLHGSAQLECTSQGKWTQEVPSCQVVQCPSLDVPGKMNMSCSGTAVFGTVCEFTCPDDWTLNGSAVLTCGATGRWSGMPPTCEAPVSPTRP
B3: E-S2-A28H (E-S2 with the A28H mutation in the lectin domain) (domain or fragment)
chain: WYYNASSELMTYDEASAYCQRDYTHLVHIQNKEEINYLNSNLKHSPSYYWIGIRKVNNVWIWVGTGKPLTEEAQNWAPGEPNNKQRNEDCVEIYIQRTKDSGMWNDERCNKKKLALCYTASCTNASCSGHGECIETINSYTCKCHPGFLGPNCEQAVTCKPQEHPDYGSLNCSHPFGPFSYNSSCSFGCKRGYLPSSMETTVRCTSSGEWSAPAPACHVVECEALTHPAHGIRKCSSNPGSYPWNTTCTFDCVEGYRRVGAQNLQCTSSGIWDNETPSCKA
B4: E-S2 (truncated mouse E-selectin with only the first two SCR domains) (domain or fragment)
chain: B3 chain with H28A

molecular target: T1, CD44/HCELL (hematopoietic cell E- and/or L-selectin ligand) (human (endogenous in KG1a), UniProt P16070-12 21-361); assay: SPR
T1 sequence (P16070 other isoform, or with tags, fused parts or gaps): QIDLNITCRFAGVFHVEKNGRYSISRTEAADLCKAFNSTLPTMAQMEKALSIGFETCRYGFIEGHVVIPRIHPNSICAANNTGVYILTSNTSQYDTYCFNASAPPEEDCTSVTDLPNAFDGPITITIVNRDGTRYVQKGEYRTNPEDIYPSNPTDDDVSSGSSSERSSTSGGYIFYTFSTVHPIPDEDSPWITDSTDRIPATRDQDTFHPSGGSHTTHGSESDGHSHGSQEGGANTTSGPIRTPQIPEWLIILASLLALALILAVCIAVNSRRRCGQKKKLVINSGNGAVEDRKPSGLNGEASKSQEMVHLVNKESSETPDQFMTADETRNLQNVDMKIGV

Binder | Kd
B1 | 18700 nM
B2 | 1700 nM
B3 | 1190 nM

molecular target: T1, CD44/HCELL (hematopoietic cell E- …); assay: SPR; remark: another data set of the same source

Binder | koff
B1 | 5e-05 s⁻¹ and 7e-05 s⁻¹
B2 | 0.000225 s⁻¹ and 0.00014 s⁻¹
B3 | 0.0002 s⁻¹ and 0.00011 s⁻¹
B4 | 0.00016 s⁻¹ and 0.00014 s⁻¹
